Reference: patent US20090148400A1 (IMMATICS BIOTECHNOLOGIES GMHH, published 2009)
Where no end group is shown, it is not given here.

The binders below were run against T1, recombinant HLA-A*0201 molecule (HLA-A*0201 heavy chain refolded with beta-2 microglobulin) (human) (assay: ELISA-based HLA refolding assay).
Description: (§1) The amount of de novo-folded HLA/peptide complexes was determined by a quantitative ELISA. Dissociation constants (KD values) were calculated using a standard curve recorded from dilutions of a calibrant HLA/peptide complex.
ILAPVILYI [IMA-NOX-001]: binds. KLMDLDVEQL [IMA-PCN-001]: binds. KIFDEILVNA [IMA-TOP-001]: binds. LLGATCMFV [IMA-CCN-001]: binds. YVDPVITSI [IMA-MET-001]: binds. ALSNLEVTL (also: acetate salt) [IMA-C20-001]: binds.

What follows are binders tested against T1, recombinant HLA-A*0201 molecule … (assay: ELISA-based HLA refolding assay: recombinant HLA-A*0201 heavy chain with b2m and graded doses of peptide).
Description: as §1
A Kd of 0.001 nM was found for ALFVRLLALA [IMA-TGFBI-001] in this work. A Kd of 0.2 nM was found for ILDQKINEV [IMA-ODC-001] in this work.

Each binder was assayed against T1, recombinant HLA-A*0201 molecule … (assay: remark on making pMHC monomers for in vitro stimulation).
STAPPVHNV [IMA-MUC-001]: binds.
